Results on four substances are retold here after patent publication US20100254896A1.

The target of the test is αvβ3 receptors on M21 human melanoma cells (human) (UniProt P06756). The test is described as follows: cell-based or functional assay.
Sequence of UniProt P06756 (P06756 31-1048, chain 1 of 2): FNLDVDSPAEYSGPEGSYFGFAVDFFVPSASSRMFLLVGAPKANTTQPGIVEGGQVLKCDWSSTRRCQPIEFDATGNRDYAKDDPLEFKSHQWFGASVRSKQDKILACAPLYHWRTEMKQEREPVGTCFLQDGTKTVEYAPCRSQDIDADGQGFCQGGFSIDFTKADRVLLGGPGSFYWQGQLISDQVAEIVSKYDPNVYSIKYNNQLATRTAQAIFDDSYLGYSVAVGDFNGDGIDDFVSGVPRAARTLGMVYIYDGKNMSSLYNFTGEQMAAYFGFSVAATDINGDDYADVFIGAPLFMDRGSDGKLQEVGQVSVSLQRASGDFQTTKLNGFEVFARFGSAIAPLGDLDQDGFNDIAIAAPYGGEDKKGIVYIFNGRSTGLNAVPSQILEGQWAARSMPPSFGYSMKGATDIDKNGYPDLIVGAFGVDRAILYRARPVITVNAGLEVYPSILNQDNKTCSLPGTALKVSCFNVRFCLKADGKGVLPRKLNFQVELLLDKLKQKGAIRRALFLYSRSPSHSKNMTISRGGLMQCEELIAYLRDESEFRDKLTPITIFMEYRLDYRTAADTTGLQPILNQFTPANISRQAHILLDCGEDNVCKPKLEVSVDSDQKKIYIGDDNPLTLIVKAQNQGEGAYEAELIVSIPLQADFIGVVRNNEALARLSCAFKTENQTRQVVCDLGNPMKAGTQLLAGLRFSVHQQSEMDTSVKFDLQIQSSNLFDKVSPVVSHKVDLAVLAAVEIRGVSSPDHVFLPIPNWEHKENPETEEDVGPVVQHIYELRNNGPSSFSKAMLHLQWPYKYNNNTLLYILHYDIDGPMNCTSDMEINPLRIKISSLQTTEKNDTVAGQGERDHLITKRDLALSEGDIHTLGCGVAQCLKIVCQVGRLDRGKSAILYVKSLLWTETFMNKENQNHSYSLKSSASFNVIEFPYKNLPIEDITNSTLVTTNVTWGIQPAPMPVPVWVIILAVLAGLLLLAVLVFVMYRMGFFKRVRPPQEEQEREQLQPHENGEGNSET
Sequence of UniProt P06756 (P05106 27-788, chain 2 of 2, further chain): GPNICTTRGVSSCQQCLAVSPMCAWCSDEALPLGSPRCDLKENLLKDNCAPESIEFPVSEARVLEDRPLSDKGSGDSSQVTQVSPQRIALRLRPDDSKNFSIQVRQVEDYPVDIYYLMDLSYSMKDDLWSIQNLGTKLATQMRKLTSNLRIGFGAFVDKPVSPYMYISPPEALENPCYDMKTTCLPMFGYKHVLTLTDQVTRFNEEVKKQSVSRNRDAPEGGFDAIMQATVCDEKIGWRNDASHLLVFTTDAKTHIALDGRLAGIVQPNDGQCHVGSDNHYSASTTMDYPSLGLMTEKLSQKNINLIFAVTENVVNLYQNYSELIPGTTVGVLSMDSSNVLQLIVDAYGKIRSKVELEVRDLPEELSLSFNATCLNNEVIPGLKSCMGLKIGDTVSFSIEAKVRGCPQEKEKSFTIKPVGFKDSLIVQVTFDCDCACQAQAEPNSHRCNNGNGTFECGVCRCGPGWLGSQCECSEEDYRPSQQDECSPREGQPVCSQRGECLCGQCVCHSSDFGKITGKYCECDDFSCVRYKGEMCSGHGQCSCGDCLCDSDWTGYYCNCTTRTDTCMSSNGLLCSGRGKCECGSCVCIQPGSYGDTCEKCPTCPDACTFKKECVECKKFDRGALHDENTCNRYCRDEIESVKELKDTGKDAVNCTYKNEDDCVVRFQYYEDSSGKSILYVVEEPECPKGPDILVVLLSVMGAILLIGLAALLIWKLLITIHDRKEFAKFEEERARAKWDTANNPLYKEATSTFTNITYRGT

For the substance “RGD (targeted null AAVP, Example 2) (peptide)”, the phage internalization assay, pfu/µl came to 14000 pfu/µl.

In turn, “RGDTNF-α (targeted TNF-α expressing AAVP) (peptide)” registered a phage internalization assay, pfu/µl of 21500 pfu/µl.

With fd (non-targeted null AAVP), the phage internalization assay, pfu/µl was 300 pfu/µl.

“fdTNF-α (non-targeted TNF-α expressing AAVP)” gave a phage internalization assay, pfu/µl of 600 pfu/µl.
